Measurements taken from patent US20260167693A1 (ANGELES THERAPEUTICS, published 2026).
Changes are numbered by the printed parent chain. Numbers in names are those of the source. Blank lines part the entries; values can stand above or below the binder they belong to.

Target: T1, CD19-ECD-GGSG-NLuc-AcV5 (human)
T1 construct: also called CD19-GGSG-NLuc-AcV5; Flag-CD19-GGSG-NLuc-AcV5
T1 chain: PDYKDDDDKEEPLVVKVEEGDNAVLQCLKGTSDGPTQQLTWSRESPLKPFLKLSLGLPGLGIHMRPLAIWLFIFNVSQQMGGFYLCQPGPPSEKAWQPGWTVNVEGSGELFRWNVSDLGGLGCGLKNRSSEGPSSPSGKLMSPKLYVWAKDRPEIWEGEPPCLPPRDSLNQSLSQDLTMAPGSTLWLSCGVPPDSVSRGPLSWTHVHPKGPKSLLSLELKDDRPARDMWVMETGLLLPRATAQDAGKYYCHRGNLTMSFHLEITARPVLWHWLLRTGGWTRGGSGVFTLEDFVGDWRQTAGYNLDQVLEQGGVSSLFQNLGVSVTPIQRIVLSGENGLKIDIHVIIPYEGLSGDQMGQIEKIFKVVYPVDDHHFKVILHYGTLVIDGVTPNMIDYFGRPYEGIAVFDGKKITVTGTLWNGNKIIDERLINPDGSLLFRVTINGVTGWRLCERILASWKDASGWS
Assay: NLuc binding assay, SIR on Jurkat-NFAT-GFP cells

B1: CD8SP-FMC63-vL-V5-[hTCRb-KACIAH]-F-P2A-SP-FMC63-vH-Myc-[hTCRa-CSDVP]-F-F2A-PAC (010616-C01)[SEQ ID NO:1200] (other)
TCR beta: DIQMTQTTSSLSASLGDRVTISCRASQDISKYLNWYQQKPDGTVKLLIYHTSRLHSGVPSRFSGSGSGTDYSLTISNLEQEDIATYFCQQGNTLPYTFGGGTKLEITGKPIPNPLLGLDSTGSGEDLKNVFPPEVAVFEPSKAEIAHTQKATLVCLATGFYPDHVELSWWVNGKEVHSGVCTDPQPLKEQPALNDSRYCLSSRLRVSATFWQNPRNHFRCQVQFYGLSENDEWTQDRAKPVTQIVSAEAWGRADCGITSASYHQGVLSATILYEILLGKATLYAVLVSALVLMAMVKRKDSRG
TCR alpha: EVKLQESGPGLVAPSQSLSVTCTVSGVSLPDYGVSWIRQPPRKGLEWLGVIWGSETTYYNSALKSRLTIIKDNSKSQVFLKMNSLQTDDTAIYYCAKHYYYGGSYAMDYWGQGTSVTVSSEQKLISEEDGSGIQNPDPAVYQLRDSKSSDKSVCLFTDFDSQTNVSQSKDSDVYITDKCVLDMRSMDFKSNSAVAWSNKSDFACANAFNNSIIPEDTFFPSSDVPCDVKLVEKSFETDTNLNFQNLSVIGFRILLLKVAGFNLLMTLRLWSS
notes: Polyprotein PRT 3435; also called 102615-C08
CD19-GGSG-NLuc (RLU): 6840 RLU

B2: CD8SP-FMC63-vL-V5-[hTCRb-KACIAH]-F-P2A-SP-FMC63-vH-Myc4-[hTCRα-SD]-F-F2A-PAC (other)
TCR beta: B1 TCR beta
TCR alpha: EVKLQESGPGLVAPSQSLSVTCTVSGVSLPDYGVSWIRQPPRKGLEWLGVIWGSETTYYNSALKSRLTIIKDNSKSQVFLKMNSLQTDDTAIYYCAKHYYYGGSYAMDYWGQGTSVTVSSEQKLISEEDLGSGIQNPDPAVYQLRDSKSSDKSVCLFTDFDSQTNVSQSKDSDVYITDKTVLDMRSMDFKSNSAVAWSNKSDFACANAFNNSIIPEDTFFPSSDSSCDVKLVEKSFETDTNLNFQNLSVIGFRILLLKVAGFNLLMTLRLWSS
notes: Polyprotein PRT 12444; also called 120916-R01
CD19-GGSG-NLuc (RLU): 2660 RLU

B3: CD8SP-FMC63-vL-GSG-hTCRb-RAC-F-P2A-SP-FMC63-vH-Myc-[hTCRa-CSDVP]-F-F2A-PAC (other)
TCR beta: DIQMTQTTSSLSASLGDRVTISCRASQDISKYLNWYQQKPDGTVKLLIYHTSRLHSGVPSRFSGSGSGTDYSLTISNLEQEDIATYFCQQGNTLPYTFGGGTKLEITGSGEDLKNVFPPEVAVFEPSRAEIAHTQKATLVCLATGFYPDHVELSWWVNGKEVHSGVCTDPQPLKEQPALNDSRYCLSSRLRVSATFWQNPRNHFRCQVQFYGLSENDEWTQDRAKPVTQIVSAEAWGRADCGFTSESYQQGVLSATILYEILLGKATLYAVLVSALVLMAMVKRKDSRG
TCR alpha: B1 TCR alpha
notes: Polyprotein PRT 12447; also called 121516-W05
CD19-GGSG-NLuc (RLU): 17200 RLU

B4: CD8SP-FMC63-vL-V5-[hTCRb-KACIAH]-F-P2A-SP-FMC63-vH-[GSG-hTCRa-T48C-opt]-F-F2A-PAC (other)
TCR beta: B1 TCR beta
TCR alpha: EVKLQESGPGLVAPSQSLSVTCTVSGVSLPDYGVSWIRQPPRKGLEWLGVIWGSETTYYNSALKSRLTIIKDNSKSQVFLKMNSLQTDDTAIYYCAKHYYYGGSYAMDYWGQGTSVTVSSGSGIQNPDPAVYQLRDSKSSDKSVCLFTDFDSQTNVSQSKDSDVYITDKCVLDMRSMDFKSNSAVAWSNKSDFACANAFNNSIIPEDTFFPSPESSCDVKLVEKSFETDTNLNFQNLSVIGFRILLLKVAGFNLLMTLRLWSS
notes: Polyprotein PRT 12436; also called 110916-M04
CD19-GGSG-NLuc (RLU): 20500 RLU

B6: CD8SP-FMC63-vL-[hTCRb-R18A22]-F-P2A-SP-FMC63-vH-Myc4-[hTCRa-SD]-F-F2A-PAC (other)
TCR beta: DIQMTQTTSSLSASLGDRVTISCRASQDISKYLNWYQQKPDGTVKLLIYHTSRLHSGVPSRFSGSGSGTDYSLTISNLEQEDIATYFCQQGNTLPYTFGGGTKLEITEDLKNVFPPEVAVFEPSRAEIAHTQKATLVCLATGFYPDHVELSWWVNGKEVHSGVSTDPQPLKEQPALNDSRYCLSSRLRVSATFWQNPRNHFRCQVQFYGLSENDEWTQDRAKPVTQIVSAEAWGRADCGFTSESYQQGVLSATILYEILLGKATLYAVLVSALVLMAMVKRKDSRG
TCR alpha: B2 TCR alpha
notes: Polyprotein PRT 12439; also called 112116-R08
CD19-GGSG-NLuc (RLU): 7570 RLU

B7: CD8SP-FMC63-vL-[hTCRb-RC]-F-P2A-SP-FMC63-vH-[hTCRa-CSDVP]-F-F2A-PAC (other)
TCR beta: B6 TCR beta with A129S, S164C
TCR alpha: EVKLQESGPGLVAPSQSLSVTCTVSGVSLPDYGVSWIRQPPRKGLEWLGVIWGSETTYYNSALKSRLTIIKDNSKSQVFLKMNSLQTDDTAIYYCAKHYYYGGSYAMDYWGQGTSVTVSSIQNPDPAVYQLRDSKSSDKSVCLFTDFDSQTNVSQSKDSDVYITDKCVLDMRSMDFKSNSAVAWSNKSDFACANAFNNSIIPEDTFFPSSDVPCDVKLVEKSFETDTNLNFQNLSVIGFRILLLKVAGFNLLMTLRLWSS
notes: Polyprotein PRT 12445; also called 121516-U07
CD19-GGSG-NLuc (RLU): 12600 RLU

The remaining lines, values ahead:

CD19-GGSG-NLuc (RLU): 2180 RLU
B5: CD8SP-FMC63-vL-[hTCRb-S57C-opt]-F-P2A-SP-FMC63-vH-Myc-[hTCRa-CSDVP]-F-F2A-PAC (other)
TCR beta: B6 TCR beta with R125E, A129S, S164C
TCR alpha: B1 TCR alpha
notes: Polyprotein PRT 12438; also called 110916-P02

CD19-GGSG-NLuc (RLU): 4480 RLU
B8: CD8SP-FMC63-vL-Myc2-[hTCRb-R18A22]-F-P2A-SP-FMC63-vH-Myc4-[hTCRa-SD]-F-F2A-PAC (other)
TCR beta: DIQMTQTTSSLSASLGDRVTISCRASQDISKYLNWYQQKPDGTVKLLIYHTSRLHSGVPSRFSGSGSGTDYSLTISNLEQEDIATYFCQQGNTLPYTFGGGTKLEITEQKLISEEDLGSGEDLKNVFPPEVAVFEPSRAEIAHTQKATLVCLATGFYPDHVELSWWVNGKEVHSGVSTDPQPLKEQPALNDSRYCLSSRLRVSATFWQNPRNHFRCQVQFYGLSENDEWTQDRAKPVTQIVSAEAWGRADCGFTSESYQQGVLSATILYEILLGKATLYAVLVSALVLMAMVKRKDSRG
TCR alpha: B2 TCR alpha
notes: Polyprotein PRT 12440; also called 112116-S08

CD19-GGSG-NLuc (RLU): 3910 RLU
B9: CD8SP-FMC63-vL-[hTCRb-R18]-F-P2A-SP-FMC63-vH-Myc4-[hTCRa-SD]-F-F2A-PAC (other)
TCR beta: B6 TCR beta with A129S
TCR alpha: B2 TCR alpha
notes: Polyprotein PRT 12442; also called 112116-U08

CD19-GGSG-NLuc (RLU): 9760 RLU
B10: CD8SP-FMC63-vL-[hTCRb-KACIAH]-F-P2A-SP-FMC63-vH-[hTCRa-CSDVP]-F-F2A-PAC (other)
TCR beta: B6 TCR beta with R125K, S164C, F240I, E243A, Q246H
TCR alpha: B7 TCR alpha
notes: Polyprotein PRT 12468; also called 022217-E01
